T1: IL-20 receptor (IL-20R1/IL-20R2) heterodimeric receptor on co-transfected cells (human, UniProt Q6UXL0 30-311)
T1 construct: whole, on cells; Both subunits were co-transfected into Cos-E5, BHK or Ba/F3 cells
T1 sequence 1: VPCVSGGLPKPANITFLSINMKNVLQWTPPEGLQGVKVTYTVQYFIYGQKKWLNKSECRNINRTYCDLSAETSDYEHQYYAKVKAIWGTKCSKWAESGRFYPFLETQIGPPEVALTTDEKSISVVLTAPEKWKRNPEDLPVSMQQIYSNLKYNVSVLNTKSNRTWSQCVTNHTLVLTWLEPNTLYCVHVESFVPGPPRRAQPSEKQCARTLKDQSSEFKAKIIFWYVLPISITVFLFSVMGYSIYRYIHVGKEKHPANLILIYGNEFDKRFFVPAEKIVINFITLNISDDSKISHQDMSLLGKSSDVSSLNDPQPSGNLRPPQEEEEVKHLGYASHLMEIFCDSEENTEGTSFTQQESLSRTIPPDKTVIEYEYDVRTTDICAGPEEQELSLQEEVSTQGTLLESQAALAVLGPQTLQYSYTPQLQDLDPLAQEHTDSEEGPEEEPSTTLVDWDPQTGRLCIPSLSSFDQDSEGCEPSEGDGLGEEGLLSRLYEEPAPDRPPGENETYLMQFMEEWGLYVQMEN
T1 sequence 2: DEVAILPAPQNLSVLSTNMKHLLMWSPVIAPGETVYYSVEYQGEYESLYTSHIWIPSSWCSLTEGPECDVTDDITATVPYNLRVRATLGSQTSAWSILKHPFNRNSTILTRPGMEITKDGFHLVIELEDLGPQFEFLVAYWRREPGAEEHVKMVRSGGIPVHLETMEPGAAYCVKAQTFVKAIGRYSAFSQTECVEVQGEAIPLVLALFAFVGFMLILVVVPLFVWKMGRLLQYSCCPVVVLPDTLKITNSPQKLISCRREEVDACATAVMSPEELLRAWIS

T2: IL-22R1/IL-20R2 heterodimeric receptor on co-transfected cells (human, UniProt Q6UXL0 30-311)
T2 construct: whole, on cells; Both subunits were co-transfected into Cos-E5, BHK or Ba/F3 cells; also called IL-24 receptor (IL-22R1/IL-20R2)
T2 sequence 1: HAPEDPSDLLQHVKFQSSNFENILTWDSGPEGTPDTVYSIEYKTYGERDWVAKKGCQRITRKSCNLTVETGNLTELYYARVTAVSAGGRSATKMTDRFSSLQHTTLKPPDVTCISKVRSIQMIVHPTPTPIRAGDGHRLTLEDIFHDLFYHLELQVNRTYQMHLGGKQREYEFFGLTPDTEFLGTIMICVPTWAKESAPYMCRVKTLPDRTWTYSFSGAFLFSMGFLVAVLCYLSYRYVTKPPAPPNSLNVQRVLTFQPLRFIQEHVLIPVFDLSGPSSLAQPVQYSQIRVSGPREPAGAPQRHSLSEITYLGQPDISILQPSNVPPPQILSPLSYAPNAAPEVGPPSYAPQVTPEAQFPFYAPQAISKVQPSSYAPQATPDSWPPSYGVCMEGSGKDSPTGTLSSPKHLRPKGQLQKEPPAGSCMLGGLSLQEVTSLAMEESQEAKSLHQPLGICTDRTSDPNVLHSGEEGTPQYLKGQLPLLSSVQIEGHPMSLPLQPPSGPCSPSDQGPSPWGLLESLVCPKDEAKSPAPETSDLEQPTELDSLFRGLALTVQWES
T2 sequence 2: T1 sequence 2

T3: human IL-20R1, expressed alone on transfected cells (human, UniProt Q9UHF4 30-553)
T3 sequence: T1 sequence 1

T4: human IL-22R1, expressed alone on transfected cells (human, UniProt Q8N6P7 16-574)
T4 sequence: T2 sequence 1

B1: human IL-24-AP fusion protein (ligand, UniProt Q13007 52-206, looked up)
chain: QEFHFGPCQVKGVVPQKLWEAFWAVKDTMQAQDNITSARLLQQEVLQNVSDAESCYLVHTLLEFYLKTVFKNYHNRTVEVRTLKSFSTLANNFVLIVSQLQPSQENEMFSIRDSAHRRFLLFRRAFKQLDVEAALTKALGEVDILLTWMQKFYKL
notes: Used as conditioned medium; also called Mob-5-alkaline phosphatase fusion protein; not shown: secreted human placental alkaline phosphatase (AP)
B2: human IL-20R2, expressed alone on transfected cells (receptor, UniProt Q6UXL0 30-311, looked up)
chain: T1 sequence 2
notes: whole, on cells

Tests used:
[1] = target: T1, IL-20 receptor (IL-20R1/IL-20R2) …; assay: in situ cell surface AP staining of transfected Cos cells
Source text: (§1) FIG. 3C illustrates cell surface staining assay for the IL-24 receptor binding. Cos-E5 cells transfected with either the IL-20R1, IL-22R1 and IL20R2 expression vector alone or in pairs were stained for the cell surface-bound IL-24-AP activity and viewed under a light microscope (20× magnification) without phase contrast.
(§2) Based on published data and database searches of GenBank (NCBI), only three R1 and two R2 types of the IL-10 family of receptor subunits can be identified. The three R1 subunits are IL-10R1, IL-20R1 and IL-22R1, whereas the two R2 subunits are IL-20R2 and IL-1OR2, the latter of which is also the second receptor subunit for IL-22. Thus, the IL-24 receptor could be a heterodimer of a combination of the known R1 and R2 receptors. […] The quantitative cell surface binding assays were carried out with Cos cells after transfecting plasmids over-expressing IL-10R2, IL-20R1, IL-22R1 and IL-20R2 individually or in all four R1/R2 combinations (FIG. 3B). […] Using AP staining assays, the quantitative IL-24-AP binding data was confirmed (FIG. 3C). Specific cell surface staining was detected with IL-24-AP when Cos cells were transiently transfected with […] (FIG. 3C).

[2] = target: T2, IL-22R1/IL-20R2 heterodimeric receptor …; assay: as above
Source text: as §1, §2

[3] = target: T3, human IL-20R1, expressed alone on …; assay: quantitative cell surface AP binding assay on transfected Cos cells
[4] = target: T4, human IL-22R1, expressed alone on …; assay: as above
[5] = target: T5, secreted human placental alkaline phosphatase (AP) (human, UniProt P05187 23-511); assay: as above
T5 construct: Control probe, used as conditioned medium; also called AP control
T5 sequence (P05187 23-511): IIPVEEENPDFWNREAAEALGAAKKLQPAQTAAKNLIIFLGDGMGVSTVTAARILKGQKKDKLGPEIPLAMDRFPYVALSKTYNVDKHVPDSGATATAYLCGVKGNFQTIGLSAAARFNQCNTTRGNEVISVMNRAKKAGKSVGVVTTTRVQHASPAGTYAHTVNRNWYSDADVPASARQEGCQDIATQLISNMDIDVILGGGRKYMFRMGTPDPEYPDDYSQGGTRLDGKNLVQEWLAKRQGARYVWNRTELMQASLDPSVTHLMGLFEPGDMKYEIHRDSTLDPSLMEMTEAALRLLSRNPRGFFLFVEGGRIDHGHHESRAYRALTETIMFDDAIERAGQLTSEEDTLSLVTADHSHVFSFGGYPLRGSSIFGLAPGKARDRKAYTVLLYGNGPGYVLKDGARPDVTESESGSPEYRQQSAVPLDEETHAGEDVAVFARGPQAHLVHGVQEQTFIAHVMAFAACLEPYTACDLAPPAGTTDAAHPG

Binder	binding result [1]	binding result [2]	binding result [3]	binding result [4]	binding result [5]
B1	binds	binds	no binding	no binding	
B2					no binding

Source: patent US20030078381A1 (VANDERBILT UNIVERSITY, published 2003)
